Experimental data from patent US20220175942A1 (published 2022).

T1: CCL4 (human, UniProt P13236 24-92)
T1 chain: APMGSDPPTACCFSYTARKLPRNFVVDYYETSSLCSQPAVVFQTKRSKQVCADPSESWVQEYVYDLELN

T2: CCL3_HUMAN (human, UniProt P10147 24-92)
T2 chain: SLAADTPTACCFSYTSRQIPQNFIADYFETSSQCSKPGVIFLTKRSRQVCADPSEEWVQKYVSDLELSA

T3: CCL18_HUMAN (human, UniProt P55774 21-89)
T3 chain: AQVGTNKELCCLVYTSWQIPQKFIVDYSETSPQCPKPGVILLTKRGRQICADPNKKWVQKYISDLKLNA

T4: CCL22_HUMAN (human, UniProt O00626 25-93)
T4 chain: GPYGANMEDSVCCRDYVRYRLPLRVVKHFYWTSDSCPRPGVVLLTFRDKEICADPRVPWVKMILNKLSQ

B1: CCL15_HUMAN (ligand)
chain: QFTNDAETELMMSKLPLENPVVLNSFHFAADCCTSYISQSIPCSLMKSYFETSSECSKPGVIFLTKKGRQVCAKPSGPGVQDCMKKLKPYSI
B2: CCL17_HUMAN (ligand)
chain: ARGTNVGRECCLEYFKGAIPLRKLKTWYQTSEDCSRDAIVFVTVQGRAICSDPNNKRVKNAVKYLQSLERS
B3: CCL11_HUMAN (ligand)
chain: not shown
B4: CCL1_HUMAN (ligand)
chain: KSMQVPFSRCCFSFAEQEIPLRAILCYRNTSSICSNEGLIFKLKRGKEACALDTVGWVQRHRKMLRHCPSKRK
B5: CCL5_HUMAN (ligand)
chain: SPYSSDTTPCCFAYIARPLPRAHIKEYFYTSGKCSNPAVVFVTRKNRQVCANPEKKWVREYINSLEMS
B6: CCL8_HUMAN (ligand)
chain: QPDSVSIPITCCFNVINRKIPIQRLESYTRITNIQCPKEAVIFKTKRGKEVCADPKERWVRDSMKHLDQIFQNLKP

Assays:
CCL3L1_HUMAN = experiment: BLI
CCL7_HUMAN = experiment: BLI
CCL13_HUMAN = experiment: BLI
CCL4 = target: T1, CCL4; experiment: BLI
CCL17_HUMAN = target: B2; experiment: BLI
CCL2_HUMAN = CCL2_HUMAN (human, UniProt P13500 24-99); experiment: BLI
CCL3_HUMAN = target: T2, CCL3_HUMAN; experiment: BLI
CCL8_HUMAN = target: B6; experiment: BLI
CCL11_HUMAN = target: B3; experiment: BLI
CCL1_HUMAN = target: B4; experiment: BLI
CCL16_HUMAN = experiment: BLI
CCL4L1_HUMAN = experiment: BLI
CCL5_HUMAN = target: B5; experiment: BLI
CCL18_HUMAN = target: T3, CCL18_HUMAN; experiment: BLI
CCL24_HUMAN = experiment: BLI
EVASIN4 = experiment: -; previously described evasin
CCL14_HUMAN = experiment: BLI
CCL15_HUMAN = target: B1; experiment: BLI
CCL23_HUMAN = experiment: BLI
EVASIN1 = experiment: -; previously described evasin
CCL22_HUMAN = target: T4, CCL22_HUMAN; experiment: BLI

Chain of CCL2_HUMAN (P13500 24-99): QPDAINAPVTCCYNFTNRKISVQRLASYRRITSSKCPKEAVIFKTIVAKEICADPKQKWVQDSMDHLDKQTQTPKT

Binder | Kd (CCL3L1_HUMAN) | Kd (CCL7_HUMAN) | Kd (CCL13_HUMAN) | Kd (CCL4) | Kd (CCL2_HUMAN) | Kd (CCL3_HUMAN) | Kd (CCL8_HUMAN) | Kd (CCL11_HUMAN) | Kd (CCL4L1_HUMAN) | Kd (CCL18_HUMAN) | Kd (EVASIN4) | Kd (CCL14_HUMAN) | also measured
P1182_AMBMA (other) EPKDDNDYGGGCPFVVLGNGTHAKPAGCSHLCNGAPETLDNIECYNVTEEVAKRMTPGIPYACWLGWCNKGECKRGNRTEVCYRGSEEE | 63.4 nM | 29.2 nM | 50 nM | 92.4 nM | 5.39 nM | 9.46 nM | 28.2 nM | 56 nM | – | – | – | – | Kd (CCL17_HUMAN): 33.4 nM; Kd (CCL1_HUMAN): 74 nM
P985_AMBPA (other) DEESEELGASTDVDYEELDANCTCPAPALTSTRNNKHYPLGCIYNCSSYNCTIPDGTPCYVLTLGEVKEHLQIGSTVPNCTCGLCRNGTCVSNGTVEECFAVEEIEET | 45.8 nM | 61.4 nM | 89 nM | 7.47 nM | 16.8 nM | 8.9 nM | 6.53 nM | 8 nM | 20.6 nM | 431 nM | – | – | Kd (CCL16_HUMAN): 44.8 nM; Kd (CCL5_HUMAN): 3.52 nM; Kd (CCL1_HUMAN): 8.32 nM; Kd (CCL24_HUMAN): 40.8 nM
B1 | – | – | – | – | – | – | – | – | – | – | 2.31 nM | – | –
CCL19_HUMAN (ligand) GTNDAEDCCLSVTQKPIPGYIVRNFHYLLIKDGCRVPAVVFTTLRGRQLCAPPDQPWVERIIQRLQRTSAKMKRRSS | – | – | – | – | – | – | – | – | – | – | 0.14 nM | – | –
B2 | – | – | – | – | – | – | – | – | – | – | 0.61 nM | – | –
P672_RHIPU (other) VCEVSEQEGVGEDNATEDEDYEDFFKPVTCYFANSTVGPLRPPNCTVVCTNNTAWWNDTKSDGGHCYSEYRPEKRTHSREIYNCTIGVCGNGTCIANHTYADCW | 2.7 nM | 16.1 nM | – | – | 9.09 nM | 2.6 nM | 3.7 nM | – | – | – | – | 5.5 nM | Kd (CCL16_HUMAN): 3.29 nM; Kd (CCL15_HUMAN): 31.5 nM; Kd (CCL23_HUMAN): 10 nM
B3 | – | – | – | – | – | – | – | – | – | – | 0.34 nM | – | –
P467_RHIPU (other) AEKSLDSDSSGEDYELWTQGCPFLVAENRTGFGTTVSCQHNCNGAIEKVPEGEPCYTIGEDGLGRMKLNLPYNCSLGECSGGVCVPNGRSDVCFKRTWEENNKAMA | 0.524 nM | 2.15 nM | 2.56 nM | 13.6 nM | 0.001 nM | 0.363 nM | 2.85 nM | 1.4 nM | 4.72 nM | 16.6 nM | – | 4.13 nM | Kd (CCL16_HUMAN): 14.1 nM; Kd (CCL5_HUMAN): 7.67 nM; Kd (CCL1_HUMAN): 53.4 nM
CCL4_HUMAN (ligand) APMGSDPPTACCFSYTARKLPRNFVVDYYETSSLCSQPAVVFQTKRSKQVCADPSESWVQEYVYDLELN | – | – | – | – | – | – | – | – | – | – | – | – | Kd (EVASIN1): 0.5 nM
P1181_AMBMA (other) EEREDDNDYGGGCPFVVLGNGTHAKPAGCSHLCNGAPETLDNIECYNVTEEVAKRMTPDIPYTCWLGWCSKGECKRDNRTEVCYRGSERE | 100 nM | 35 nM | 19 nM | 53 nM | 2.21 nM | 3.29 nM | 119 nM | 19.5 nM | 13.5 nM | 10 nM | – | 47 nM | –
P1180_AMBTR (other) EEPKDGYDYTEGCPFVVLGNGTHAKPAGCSHLCNGAPETLDDNMECYNVTEEVAKRMTPDIPYTCWLGWCSKGECKRDNRTEVCYRGSERE | 2.19 nM | 98 nM | 8.96 nM | 66 nM | 53 nM | 1.07 nM | 3.63 nM | 32.5 nM | 19.5 nM | 5.78 nM | – | 4.4 nM | –
P1183_AMBTR (other) EAPKDDFEYDGGCPFVVLDNGTHVKPAGCSHLCNGAPETLDNIECYNVTEEVAKRMTPGIPYACWLGWCSKGECKRDNRTEVCYRGSEEE | 110 nM | 5.38 nM | 5.67 nM | 78.3 nM | 11.9 nM | – | 1130 nM | 8.47 nM | 48.4 nM | – | – | – | –
B4 | – | – | – | – | – | – | – | – | – | – | 0.2 nM | – | –
B5 | – | – | – | – | – | – | – | – | – | – | 0.09 nM | – | –
B6 | – | – | – | – | – | – | – | – | – | – | 0.25 nM | – | –
P546_AMBCA (other) ENTQQEEEDYDYGTDTCPFPVLANKTNKAKFVGCHQKCNGGDQKLTDGTACYVVERKVWDRMTPMLWYSCPLGECKNGVCEDLRKKEECRKGNGEEK | 14.7 nM | 90 nM | 13.1 nM | 26.6 nM | 83 nM | 14.5 nM | 1.29 nM | 8.7 nM | 8.87 nM | 16 nM | – | 28.2 nM | Kd (CCL16_HUMAN): 6.67 nM; Kd (CCL22_HUMAN): 27 nM; Kd (CCL17_HUMAN): 70 nM; Kd (CCL1_HUMAN): 160 nM
P974_AMBCA (other) ENTQQEEQDYDYGTDTCPFPVLANKTNKAKFVGCHQKCNGGDQKLTDGTACYVVERKVWDRMTPMLWYECPLGECKNGVCEDLRKKEDCRKGNGEEK | 13.1 nM | 41.2 nM | 22.9 nM | 30.2 nM | 93 nM | 7.97 nM | 2.58 nM | 17 nM | 23.2 nM | 0.683 nM | – | 49.1 nM | Kd (CCL16_HUMAN): 11 nM; Kd (CCL22_HUMAN): 16.8 nM; Kd (CCL17_HUMAN): 70.6 nM; Kd (CCL1_HUMAN): 70.5 nM
P983_AMBCA (other) EDTGTEDDFDYGNTGCPFPVLGNYKSNMTKPVGCKNKCGSGYEVLNDTTPCYVIDQKVFNNMVPLRQYSKCPLGFCENGECKPNDQAEDCYKGREEQK | – | – | – | 8.03 nM | 13.9 nM | 3.51 nM | 6.99 nM | 18 nM | – | – | – | – | –
P983_AMBPA (other) EDTGTEDDFDYGNTGCPFPVLGNYKSNMTKPVGCKNKCGSGYEVLNDTTPCYVIDQKVFNNMVPLRQYSKCPLGFCENGECKPNDQAEDCYKGREEQK | 2.08 nM | 32.1 nM | 17.3 nM | – | – | – | – | – | 2.86 nM | – | – | 81 nM | –
